Results from patent US10363320B2, “Conjugate comprising oxyntomodulin and an immunoglobulin fragment, and use thereof” (HANMI SCIENCE CO., LTD, priority 2011, dated 2019).

Legend:
[1] = taken for 1 year; cited from earlier work
[2] = in vivo; cited from earlier work
human GLP-1 receptor = molecular target: T1, human GLP-1 receptor (Homo sapiens, UniProt P43220); assay: cAMP response in CHO cell line expressing human GLP-1 receptor (CHO/GLP-1R); assay type: cell-based; details: Table 3, Fc conjugates, GLP-1, glucagon, 37° C. for 1 hour
T1 construct: host or cells: CHO DG44
T1 sequence (P43220 24-463): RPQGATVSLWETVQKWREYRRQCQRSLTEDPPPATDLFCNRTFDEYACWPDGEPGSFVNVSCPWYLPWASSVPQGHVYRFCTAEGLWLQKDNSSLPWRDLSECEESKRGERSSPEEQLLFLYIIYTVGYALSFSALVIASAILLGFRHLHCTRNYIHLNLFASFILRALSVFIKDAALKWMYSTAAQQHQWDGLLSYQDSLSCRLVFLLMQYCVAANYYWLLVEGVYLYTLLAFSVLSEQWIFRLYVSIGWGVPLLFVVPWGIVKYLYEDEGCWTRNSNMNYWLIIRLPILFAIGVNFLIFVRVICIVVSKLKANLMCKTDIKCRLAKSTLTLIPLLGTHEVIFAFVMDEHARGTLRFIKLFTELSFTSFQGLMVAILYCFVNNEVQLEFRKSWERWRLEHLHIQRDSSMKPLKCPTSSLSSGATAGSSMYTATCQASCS
Protocol: The PCR product was cloned into the known animal cell expression vector x0GC/dhfr to prepare a recombinant vector x0GC/GLP1R.
CHO DG44 cell line cultured in DMEM/F12 (10% FBS) medium was transfected with the recombinant vector x0GC/GLP1R using LIPOFECTAMINE® (INVITROGEN®, USA), and cultured in a selection medium containing 1 mg/mL G418 and 10 nM methotraxate.
(§1) The cultured cells were washed with KRB buffer and suspended in 40 ml of KRB buffer containing 1 mM IBMX, and left at room temperature for 5 minutes. […] Then, 20 mL of cell lysis buffer was added for cell lysis, and the cell lysates were applied to a cAMP assay kit (Molecular Device, USA) to measure cAMP concentrations. EC50 values were calculated therefrom, and compared to each other.
(§2) Each of the cultured transformants was washed with KRB buffer and suspended in 40 ml of KRB buffer containing 1 mM IBMX, and left at room temperature for 5 minutes. […] Then, 20 ml of cell lysis buffer was added for cell lysis, and the cell lysates were applied to a cAMP assay kit (Molecular Device, USA) to measure cAMP concentrations using a Victor (PERKIN ELMER®, USA). EC50 values were calculated therefrom, and compared to each other (Table 3).

human glucagon receptor = molecular target: T2, human glucagon receptor (Homo sapiens, UniProt P47871); assay: cAMP response in CHO cell line expressing human glucagon receptor (CHO/GCGR); assay type: cell-based; details: Table 3, Fc conjugates, GLP-1, glucagon, 37° C. for 1 hour
T2 construct: host or cells: CHO DG44
T2 sequence (P47871 26-477): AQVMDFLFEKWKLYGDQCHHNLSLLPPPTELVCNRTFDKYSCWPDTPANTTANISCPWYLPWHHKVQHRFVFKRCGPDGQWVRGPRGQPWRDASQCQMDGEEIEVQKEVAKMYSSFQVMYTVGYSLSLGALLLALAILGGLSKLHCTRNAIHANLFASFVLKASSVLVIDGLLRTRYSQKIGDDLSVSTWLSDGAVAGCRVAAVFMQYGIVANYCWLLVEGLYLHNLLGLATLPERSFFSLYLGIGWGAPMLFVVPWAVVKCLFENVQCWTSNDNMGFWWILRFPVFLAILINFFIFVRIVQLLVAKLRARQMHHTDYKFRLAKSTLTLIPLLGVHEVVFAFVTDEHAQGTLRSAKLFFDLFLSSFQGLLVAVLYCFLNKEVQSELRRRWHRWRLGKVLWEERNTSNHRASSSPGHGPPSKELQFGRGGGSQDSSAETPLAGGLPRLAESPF
Protocol: The PCR product was cloned into the known animal cell expression vector x0GC/dhfr to prepare a recombinant vector x0GC/GCGR.
CHO DG44 cell line cultured in DMEM/F12 (10% FBS) medium was transfected with the recombinant vector x0GC/GCGR using LIPOFECTAMINE®, and cultured in a selection medium containing 1 mg/mL G418 and 10 nM methotraxate.
as §1, §2

For `CCCCCCCCCCC[C@@H](C[C@@H]1OC(=O)[C@H]1CCCCCC)OC(=O)[C@H](CC(C)C)NC=O` [Orlistat], the weight loss [1] is given as 4 kg.
For `Cc1c(C(=O)NN2CCCCC2)nn(-c2ccc(Cl)cc2Cl)c1-c1ccc(Cl)cc1` [Rimonabant], the side-effect [2] is given as “side-effect of central nerve disorder”.
For `CC(C)CC(N(C)C)C1(c2ccc(Cl)cc2)CCC1` (stereo not drawn) [Sibutramine], the side-effect [2] is given as “cardiovascular side-effects”.
Work on “SEQ ID NO. 23 - Fc conjugates: conjugate of oxyntomodulin derivative (SEQ ID NO. 23), cysteine 24, MAL-10K-ALD PEG and immunoglobulin Fc (HXQGTFTSDYSKYLDEKRAKEFVCWLMNT; not fully specified; conjugate chemistry not built; chains of the parent or of the whole protein)” yielded an EC50 (human GLP-1 receptor) of 5.4 nM and an EC50 (human glucagon receptor) of 15.8 nM.
For “SEQ ID NO. 33 - Fc conjugates: conjugate of oxyntomodulin derivative (SEQ ID NO. 33), cysteine 30, MAL-10K-ALD PEG and immunoglobulin Fc (HXQGTFTSDYAKYLDEKRAKEFVQWLMNTC; conjugate chemistry not built; chains of the parent or of the whole protein)”, the EC50 (human GLP-1 receptor) was 11.7 nM and the EC50 (human glucagon receptor) was 85.9 nM.
“SEQ ID NO. 34 - Fc conjugates: conjugate of oxyntomodulin derivative (SEQ ID NO. 34), cysteine 30, MAL-10K-ALD PEG and immunoglobulin Fc (YXQGTFTSDYSKYLDEKRAKEFVQWLMNTC; conjugate chemistry not built; chains of the parent or of the whole protein)” gave an EC50 (human GLP-1 receptor) of 168 nM and an EC50 (human glucagon receptor) of 8 nM.
